This is an account of results in the supplement of paper PMC12042874.

± gives the uncertainty stated by the source.

This data set can be described thus: amyloid nucleation score (Sup35N fusion, yeast selection) (log enrichment); library NNK1; higher = more nucleation; inactive = no reads after selection. The procedure, abridged: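 The nucleation score equals the log enrichment of output over input reads from DiMSum, centred on the mode score of non-aggregating sequences. It was computed only for sequences with 100 or more input reads. The reads came from Illumina sequencing of plasmid inserts from psi-negative yeast expressing Sup35N fused to peptides of 20 random codons, induced with 100 μM copper sulfate for 24 hours and grown 7 days at 30°C without adenine and uracil.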
For the substance VNLHWGSDEAVSIARDIYTW, the amyloid nucleation score turned out to be 0.533 ± 0.29.

DENDSGYELYFLGAGHTGSY yielded an amyloid nucleation score of -0.157 ± 0.39. Next, FLFRRYCAEEGLVWMKIVDT: 0.864 ± 0.53. Next, QHHLIGMVRSIGEKMLAKNQ: 0.094 ± 0.34; WLQTTYLGLFMVFTGFEGY: -0.586 ± 0.55; RLVPVACNPSLNKAVENSFF: 0.056 ± 1.5. In the case of FVFGTFA it was 0.485 ± 0.59; in that of RLLSPLY, -0.773 ± 2.1; in that of ISFCGTRGFK, 0.154 ± 0.75. In the case of GMSDRQWYMTRTYCLSGPAV, the amyloid nucleation score was found to be 0.134 ± 0.23.

In the case of DFIKTTQSFQYQRAD, the amyloid nucleation score was -0.717 ± 0.26. Next, YAIRHLKIGSGWWSLWMSSM: -0.522 ± 0.34; VSMHNLMQRFSGFMYQCFAG: 1.55 ± 0.2; RCLRTALCISMSGWCSYSNW: 1.27 ± 0.15.

VAGGDHAAHWKLAVKNPPPS came in with an amyloid nucleation score of 0.1 ± 0.56. Next, VLLIRYYFMKFDLSL: 0.359 ± 0.47. In the case of SNMEYVMNEILVRLALPTSR it was -0.671 ± 1.5. Next, ALLESGCWSMWFVSFRFELA: -0.119 ± 0.76; VRNWCVGSTVARRYHWMTCP: 0.413 ± 0.58. The substance CSKVVSSVLVQL returned an amyloid nucleation score of -0.322 ± 0.45. In the case of NRRLIIVNFVQSKDTCEWRG it was 2.77 ± 0.21; in that of LMLTGRD, -0.462 ± 1.2; in that of NACIPQVFCGSLLKFALQLW, 3.28 ± 0.088.

Regarding HWMFFYRDIFCVCVNSFL, the amyloid nucleation score came to 4.17 ± 0.085. Substance VILSARSFMTIHGHYCTYRV gave an amyloid nucleation score of 0.474 ± 0.88.

In turn, KLFESYVLSRGMVPETVKAV returned an amyloid nucleation score of 0.226 ± 0.78.

The substance SFGVTFHWN registered an amyloid nucleation score of 2.36 ± 0.28. In the case of GIGHELFSNWVMEQLA it was -0.23 ± 0.35. Regarding LGVRINGTNVLDFF, the amyloid nucleation score is 0.044 ± 0.27. Next, CLWSSVGRQTEWFSHEVNGG: 0.017 ± 0.43. As for ESYSYQGCFATYLQQNTWCT, the amyloid nucleation score was -0.008 ± 0.28. Next, KYKDFLGSISDLDWII: -0.464 ± 1.4; NNCLWLLGPRFPCVIMLVPA: 2.18 ± 0.14. In turn, TYRTLAARRWQLAYALWVLL registered an amyloid nucleation score of -0.474 ± 0.6.

For SPPLSASS, the amyloid nucleation score was -0.476 ± 1.9. In the case of SKNHSFDSYVMTVYFHHCGK it was -0.291 ± 0.4. In the case of KLSGMIAEMRAGPCTYRILY it was -0.511 ± 0.45; in that of GLNLRCSNTREGKVWNRTW, -0.37 ± 0.47; in that of VNCGSYVDLDVGVIGPR, 0.255 ± 0.84. WHSISYF: the amyloid nucleation score result was “inactive”. The substance YKTYMFYCTSFQSGPCSRLI registered an amyloid nucleation score of -0.634 ± 0.35. In the case of FHFVGLSVTVVLLSFWGWNT, the amyloid nucleation score turned out to be 0.78 ± 0.52.

In the case of NTQFHCDDFQLVHDIQ, the amyloid nucleation score stood at 0.214 ± 0.38.

In turn, RWWSWCSFTSSIFYCYLLCA came in with an amyloid nucleation score of 2.2 ± 0.13. Next, YSLWFLRYSRNGSMRDLLRF: -0.447 ± 0.39; LRAPGTMVDRRCRGVWK: 0.356 ± 0.85; NLKIQCSS: 0.004 ± 0.39. In the case of RLSTAMRVEVIGVSCSDARA it was -0.033 ± 0.28; in that of NMVLRPHVMYAWNEPELGNC, -0.22 ± 0.39; in that of GKSILVVSFARKLF, -0.18 ± 1.2. For TPLNTLYRLPMGNWLG, the amyloid nucleation score came to 0.06 ± 0.26. Next, TISAI: 0.142 ± 0.92; GSNKRHSYTLVLSRNVYPSG: 0.014 ± 0.49. Next, FTDSTRFGSYLLSSAMFPTM: -1.65 ± 2.7. Next, WIATC: 0.214 ± 0.29. With VAVLGNFL, the amyloid nucleation score entry was “inactive”. GKVAPFRDSGNIIADGNIHE came in with an amyloid nucleation score of -0.219 ± 0.47. In the case of CFVPY it was -0.109 ± 0.53; in that of SHDSKAAHPWSLRNYVATRR, 0.182 ± 0.42. In the case of CWFANRSLPVQIPRVW it was -0.394 ± 0.48; in that of VYTSTVMFEHMDRNMLMVKM, 0.166 ± 0.21; in that of RIMPEKGRNSHWMYIRVQER, 1.12 ± 0.58.

On to CGGTNILWVRSLPHGLDVHD, for which the amyloid nucleation score is -0.204 ± 0.39. For the substance ISGTLGSRVMGLSAWVRVSR, the amyloid nucleation score was -0.114 ± 0.38. The substance ILSGVFLIRIEAKSNK came in with an amyloid nucleation score of -0.179 ± 1.2. Next, LAHVFWRIDWMDKWGYNGDA: 0.992 ± 0.26.

ILKATHGSHDIYPAWNGRIS came in with an amyloid nucleation score of 3.2 ± 0.12.

In turn, TVGSLRAW registered an amyloid nucleation score of 1.15 ± 0.62. Next, VYSEVSFDF: “inactive”. In the case of NHLRGKCTWGRYCWSVVIRF it was 0.362 ± 0.83.

Regarding SCLNVNVMLYSWESVGPKSG, the amyloid nucleation score result was “inactive”. Next, LPKLICIKRASLFNPFLDLM: 0.056 ± 0.24; VLGDLVRFRAYASRAIMLSL: -0.11 ± 0.79. Take GGYGLYCDHRYVTTTWWHSS: the amyloid nucleation score stood at 0.926 ± 0.66. In the case of VQRCWYGR it was -1.94 ± 2.7; in that of FVSSVGKSEQVPSTEFFCVS, 0.174 ± 1.5; in that of YSYVVCYNFYKRV, 3.86 ± 0.14. In the case of RWRFEVIKVTSFYMSFLKSA it was 0.234 ± 0.47. In turn, IFDSFQATLCLGCLMLLSYF had an amyloid nucleation score of 0.423 ± 0.44. Next, KILCMSCFTNSYHARWTFIL: 5.694 ± 0.051; NSSTVDFSYTNYVRVLLLIA: -0.745 ± 0.8. Next, YKSLMFWLVLVSVFMIRRNI: 2.62 ± 0.26.

The substance PGGYM yielded an amyloid nucleation score of 0.597 ± 0.52. Next, DGTSPRQLKCMLKFLFDVWD: 2.94 ± 0.2; YDIQVISPPSKM: 0.202 ± 0.31. In the case of FKNVHFRNS it was -1.69 ± 1.3; in that of HSCTTLPL, -0.461 ± 0.79; in that of NGFRTSTSCVILLPFCKGQK, -0.129 ± 0.57. In the case of ITSIANFLWIL it was 3.03 ± 0.069.

Substance PAMAWSSSMSFRGTILLDFA displayed an amyloid nucleation score of -1.44 ± 2.7.

Substance KRVLCSTCIHRLCPKSGGDC showed an amyloid nucleation score of 1.33 ± 0.68.

The substance YRWSVCCLLVMFWLYDGALL registered an amyloid nucleation score of -0.156 ± 0.8.

As to NISVHDNNLFHVWNLMVDSG, the amyloid nucleation score was determined as 5.83 ± 0.061.

The substance SIVKRNLNAFAGLSLYMIFG showed an amyloid nucleation score of -0.764 ± 0.54. Next, SVIFWMGRRMLLLACVPESA: -0.128 ± 0.81.

With TTQDCNLRD, the amyloid nucleation score was -0.021 ± 0.34. In the case of YYWIYVIPSIFSIF it was 5.5 ± 0.088; in that of VLKVCTWIKYLQSV, -0.279 ± 0.33; in that of NSILFNGTQLD, -0.976 ± 0.35. Next, INQLRITWLD: 2.46 ± 0.12; QYVMSLITVQQYRSEFSAVM: 0.263 ± 0.25; TTLVKPDEIVFVSINECWCW: 0.021 ± 0.59. Next, GCIGAQRLNCLWSTRRYLVY: 5.42 ± 0.06.

For YVVNYYNRQSIGCFVWTWRR, the amyloid nucleation score is 8.169 ± 0.05. Next, LDHLVNDTVEILQYGAPSIH: 0.733 ± 0.88; AYFMDASFNVFIDISFGGGL: 8.115 ± 0.046; IGYCKWGSDYGCESAT: 1.07 ± 0.93. Next, IDMLFPFCCVALRSHRSLEG: 0.722 ± 0.46; DCNPSWIPFLVCHRIYACWR: 1.41 ± 0.64. Next, YRVFASNCEFYSRCKYLYLL: 0.029 ± 1.6; SFVYS: -0.157 ± 0.4. Substance VCPVHSNKGLQFLSMRHYSS displayed an amyloid nucleation score of 0.511 ± 0.87.

RGCRGSRQSVGSKR gave an amyloid nucleation score of -0.166 ± 0.31. MNKIITRTRSMATSDSTRHS registered an amyloid nucleation score of 0.052 ± 0.67. In the case of DINFNDGICGIKLYCYCISN it was -0.713 ± 1.7. Next, CLEDFLDNLFSSGYFKFQLV: “inactive”. MQIMRRIMWYDNSKVSF had an amyloid nucleation score of -0.177 ± 0.2. Regarding VYAQMALLR, the amyloid nucleation score was -0.164 ± 0.62. GSMLLHLIILSILFFDRVES: the amyloid nucleation score came to 0.148 ± 0.29. Next, HSLGTCRFFVIAHSLK: 0.583 ± 0.69; VPSNLQGSPFPQLGMSALVH: 0.149 ± 0.62; NGLQMDCWPLCWRGGGARNC: 0.582 ± 0.38.

For FNVRC, the amyloid nucleation score is 0.496 ± 0.36.

Substance LASGRRPSQPGVRRVAKTTG had an amyloid nucleation score of 0.392 ± 0.34.

The substance TFKRYI yielded an amyloid nucleation score of 1.28 ± 0.56.

Regarding SQCLMKGHCKT, the amyloid nucleation score stood at 0.286 ± 0.66. Next, SLCILDEQVDHFVAEGVGID: 0.876 ± 0.42; NVTSAR: 0.185 ± 1.1; MAACMYSCSMSAVEPLHTYS: 0.039 ± 0.67. Next, AHSALVTRTYSINIYFVSVE: 1.51 ± 0.21; FDSVHLRRSR: 0.701 ± 0.43. In the case of TYGGYR it was -0.343 ± 0.93. For the substance MNQLTFRTNRPPSTASVFAR, the amyloid nucleation score was 1.01 ± 0.61.

On to MNKWSG, for which the amyloid nucleation score came to 1.4 ± 0.63. Turning to PETFLPTSRVPEMGKLDTLS, the amyloid nucleation score came to 0.456 ± 0.22. Next, QHWAGIPDLAF: 0.547 ± 0.64; VTRFRYECRSGHRKHPGGMD: “inactive”. Next, QAFGRLSLATQPLLMEPRRL: 0.868 ± 0.41; FSIRTFVIRFTLMEHLSLEL: 0.266 ± 0.52; GSWGVRVFHFFARSRP: 0.032 ± 0.79. Next, CIDCYYRVCRFWSDSQAR: 0.552 ± 0.74.
